What was measured:
ULP1 SUMO protease = target: T1, ULP1 SUMO protease (Saccharomyces cerevisiae, UniProt Q02724); assay: In vitro GPATase activity assay (coupled GDH assay) of fusion -/+ Ulp1; type: biochemical, yeast
T1 construct: treatment with the yeast ULP1 protein (SUMO protease catalytic domain)
T1 sequence (Q02724 432-621 limits assumed): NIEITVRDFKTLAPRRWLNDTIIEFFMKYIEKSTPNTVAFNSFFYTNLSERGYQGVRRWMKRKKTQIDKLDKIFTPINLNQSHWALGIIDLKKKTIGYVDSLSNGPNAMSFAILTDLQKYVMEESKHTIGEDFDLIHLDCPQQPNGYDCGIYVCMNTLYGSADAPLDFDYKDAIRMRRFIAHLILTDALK
Excerpt: GPATase, a glutaminase enzyme, hydrolizes 5-phospho ribosyl pyrophosphate (PRPP) […], 5-phosphoribosyl-(b)1-amine (PRA) and pyrophosphate (PPi). This glutaminase reaction was monitored by measuring the production of glutamate by means of a coupled glutamate dehydrogenase (GDH) assay under standard reaction conditions described by Messenger and Zalkin (1979).
[…]
The coupled GDH assay employed to assess GPATase activity was examined for accuracy. Increasing amounts of the purified SUMO-GPATase fusion protein, either untreated or cleaved by the ULP1 SUMO protease, were incubated in the presence of glutamine and PRPP for a fixed period of time, and the completed reaction was then used as substrate in a GDH assay. […] This is particularly so at enzyme concentrations of 1 μg or less. Thus, the amount of NAD^+ reduced in the GDH reaction directly correlates with the amount of active GPATase enzyme in the initial reaction. In addition, treatment with ULP1 results in at least a 10-fold increase in the glutaminase activity of GPATase, despite the fact that only partial cleavage of SUMO-GPATase has been observed thus far.

[1] = target: T2, yeast ULP1 protein (SUMO protease catalytic domain) (Saccharomyces cerevisiae, UniProt Q02724); assay: Cleavage of SUMO-GPATase by yeast ULP1 (SDS-PAGE); type: biochemical; conditions: 3 hours
T2 construct: treatment with the yeast ULP1 protein (SUMO protease catalytic domain)
T2 sequence (Q02724 432-621 limits assumed): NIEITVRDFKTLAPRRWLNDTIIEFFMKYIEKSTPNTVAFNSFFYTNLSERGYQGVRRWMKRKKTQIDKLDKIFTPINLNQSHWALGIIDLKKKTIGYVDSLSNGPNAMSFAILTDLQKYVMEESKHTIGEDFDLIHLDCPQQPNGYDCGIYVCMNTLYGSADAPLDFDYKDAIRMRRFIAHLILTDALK
Description: The SUMO protein was cleaved from a SUMO-GPATase fusion protein by treatment with the yeast ULP1 protein (SUMO protease catalytic domain). Approximately 5 μg SUMO-GPATase were incubated at 30° C. for 3 hours with increasing concentrations of the ULP1 enzyme in a reaction mixture containing 50 mM Tris-HCl pH 7.5, 1 mM EDTA, 10 mM DTT. The reaction was quenched by addition of SDS-PAGE sample buffer, heated, and loaded directly on a 12% SDS-polyacrylamide gel, and electrophoresed. After electrophoresis, the gel was stained to visualize the proteins. […] This inability of the ULP1 enzyme to cut the fusion protein may reflect the occurrence of steric hindrance around the cleavage site, or some partial modification of the junction sequence, e.g. oxidation of the Cysteine residue at the amino-terminal end of GPATase.

B1: SUMO-GPATase: Fusion of SUMO (Smt3) C-terminal Gly-Gly to mature E. coli glutamine phosphoribosylpyrophosphate amidotransferase N-terminus (protein)
chain: CGIVGIAGVMPVNQSIYDALTVLQHRGQDAAGIITIDANNCFRLRKANGLVSDVFEARHMQRLQGNMGIGHVRYPTAGSSSASEAQPFYVNSPYGITLAHNGNLTNAHELRKKLFEEKRRHINTTSDSEILLNIFASELDNFRHYPLEADNIFAAIAATNRLIRGAYACVAMIIGHGMVAFRDPNGIRPLVLGKRDIDENRTEYMVASESVALDTLGFDFLRDVAPGEAIYITEEGQLFTRQCADNPVSNPCLFEYVYFARPDSFIDKISVYSARVNMGTKLGEKIAREWEDLDIDVVIPIPETSCDIALEIARILGKPYRQGFVKNRYVGRTFIMPGQQLRRKSVRRKLNANRAEFRDKNVLLVDDSIVRGTTSEQIIEMAREAGAKKVYLASAAPEIRFPNVYGIDMPSATELIAHGREVDEIRQIIGADGLIFQDLNDLIDAVRAENPDIQQFECSVFNGVYVTKDVDQGYLDFLDTLRNDDAKAVQRQNEVENLEMHNEG
modifications: left off: large carriers
notes: Fusion of SUMO (Smt3) C-terminal Gly-Gly to mature E. coli glutamine phosphoribosylpyrophosphate amidotransferase N-terminus
- increase in the glutaminase activity of GPATase on treatment with ULP1 (ULP1 SUMO protease; ULP1-cleaved vs untreated fusion, only partial cleavage): ≥ 10 fold
- absorbance at OD 363 in GDH assay (GPATase activity) (ULP1 SUMO protease; absence of Ulp1): this increase of absorbance did not occur
- absorbance at OD 363 in GDH assay (GPATase activity) (ULP1 SUMO protease; fusion incubated 30 minutes with Ulp1): an increase is absorbance
- amount of Ulp1 at which cleavage of the fusion was demonstrated ([1]; approx. 5 μg SUMO-GPATase, 30° C.): 0.009 units
- completeness of cleavage ([1]; with as much as 78.3 Units Ulp1, 30° C.): cleavage was never fully achieved

Source: patent US7842460B2, “Method for assessing proteolytic enzyme activity using ubiquitin fusion substrate” (Progenra Inc., priority 2004, dated 2010)
